In assay [1] the target is nucleophosmin/B23 (NPM), papain-released material of Jurkat T cell membrane preparations, Mono-Q pool 85-87 (human) (UniProt P06748). Put plainly: Affinity chromatography of 125I-labelled pool 85-87 (run-through of protein A-Sepharose) on protein H-Sepharose.
For assay [2], the target named is nuclear proteins (mixture of Jurkat nuclear extract proteins purified on protein H-Sepharose). Put plainly: SPR (BIACORE X), protein H over immobilised nuclear proteins; mean ± SD of three experiments. A general note: SPR reads the build-up and loss of mass on a sensor chip optically.
Assay [3] addresses nucleophosmin/B23 (NPM), papain-released material of Jurkat T cell membrane preparations, Mono-Q pool 85-87 (human) (UniProt P06748). Kind of assay: SPR (BIACORE X), protein H over biotinylated NPM on an avidin chip; mean ± SD of three experiments.

The source of these data is US6833355.

As usually defined, the pKd is the negative decadic logarithm of the Kd, by convention in mol/L. A word on the koff: it is the first-order rate constant of dissociation. As a reminder, the kon is the second-order rate constant of association.

pKd: −log10 of the molar value.

Chain of protein H of Streptococcus pyogenes, COOH-terminally truncated fragment expressed by and purified from E. coli (305 amino acids) (P50470 42-346): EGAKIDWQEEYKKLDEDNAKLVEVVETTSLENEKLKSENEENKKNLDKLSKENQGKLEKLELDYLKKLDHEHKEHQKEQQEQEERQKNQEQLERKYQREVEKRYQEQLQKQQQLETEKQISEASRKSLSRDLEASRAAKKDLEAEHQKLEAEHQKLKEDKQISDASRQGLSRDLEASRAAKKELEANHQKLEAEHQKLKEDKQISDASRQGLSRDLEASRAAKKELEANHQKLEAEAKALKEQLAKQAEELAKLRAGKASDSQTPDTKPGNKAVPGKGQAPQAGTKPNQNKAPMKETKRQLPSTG
Chain of nucleophosmin/B23 (NPM), papain-released material of Jurkat T cell membrane preparations, Mono-Q pool 85-87 (human) (P06748 1-147 limits assumed): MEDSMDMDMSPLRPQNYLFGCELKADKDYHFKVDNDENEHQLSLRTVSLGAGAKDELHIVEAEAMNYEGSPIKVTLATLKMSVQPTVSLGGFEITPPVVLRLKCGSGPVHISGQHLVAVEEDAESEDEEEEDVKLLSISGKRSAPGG

“protein H of Streptococcus pyogenes, COOH-terminally truncated fragment expressed by and purified from E. coli (305 amino acids) (from UniProt P50470 42-346)”: the percent of radioactivity bound in assay [1] is > 70%. For the same substance, in assay [2], the Ka came to 2.62e+07 M⁻¹, the pKd was 7.36, the koff was 6.7e-05 s⁻¹ and the on-rate constant (kon) was 1700 M⁻¹ s⁻¹. Further, in assay [3], the Ka came out at 3.6e+06 M⁻¹, the negative logarithm of the Kd (pKd) was 6.54, the koff was determined as 0.0019 s⁻¹ and the kon worked out at 6700 M⁻¹ s⁻¹.
